For one molecule, EC50 results are on record in patent publication US20230203204A1 (published 2023).

The target of the experiment is T1, recombinant human RANKL-murine Fc fusion protein (Sino Biological Inc.) (human, UniProt O14788 136-317, limits assumed).
T1 construct: Bought; not shown: murine Fc
T1 sequence (looked up): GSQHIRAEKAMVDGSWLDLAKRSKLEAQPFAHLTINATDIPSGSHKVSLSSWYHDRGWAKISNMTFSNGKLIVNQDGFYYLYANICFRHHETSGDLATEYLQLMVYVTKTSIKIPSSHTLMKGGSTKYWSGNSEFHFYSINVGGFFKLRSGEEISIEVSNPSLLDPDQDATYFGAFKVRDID
The experiment can be described thus: ELISA, human RANKL-murine Fc coated at 1 ug/mL, fusion protein titrated, anti-human IgG Fc-AP detection.

B1: OPG-Fc (Sino Biological Inc.) (Fc fusion, UniProt O00300 22-401, looked up)
chain: ETFPPKYLHYDEETSHQLLCDKCPPGTYLKQHCTAKWKTVCAPCPDHYYTDSWHTSDECLYCSPVCKELQYVKQECNRTHNRVCECKEGRYLEIEFCLKHRSCPPGFGVVQAGTPERNTVCKRCPDGFFSNETSSKAPCRKHTNCSVFGLLLTQKGNATHDNICSGNSESTQKCGIDVTLCEEAFFRFAVPTKFTPNWLSVLVDNLPGTKVNAESVERIKRQHSSQEQTFQLLKLWKHQNKDQDIVKKIIQDIDLCENSVQRHIGHANLTFEQLRSLMESLPGKKVGAEDIEKTIKACKPSDQILKLLSLWRIKNGDQDTLKGLMHALKHSKTYHFPKTVTQSLKKTIRFLHSFTMYKLYQKLFLEMIGNQVQSVKISCL
notes: not shown: Fc part of the bought product
A word on the EC50: it is the concentration needed to bring the measured effect to its halfway point. In the case of B1, the EC50 amounted to 0.04 µg/mL.
